Patent US20230074436A1 (DENALI THERAPEUTICS, published 2023)
No end group written: not given here. *: point of attachment. Biotin = O=C1N[C@H]2[C@H](CS[C@H]2CCCCC(=O)*)N1

How the values were obtained:
[1] = target: human alpha-synuclein monomer (human, UniProt P37840 1-140); experiment: direct ELISA on coated antigen;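 note: plates coated with recombinant human, mouse or rat alpha-synuclein, purified antibody titrated 10 µg/mL down to 0.6 ng/mL for 1 h, bound antibody detected by anti-rat HRP with TMB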
rat alpha-synuclein = rat alpha-synuclein (rat, UniProt P37377 1-140); experiment: direct ELISA on coated antigen;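 note: plates coated with recombinant human, mouse or rat alpha-synuclein, purified antibody titrated 10 µg/mL down to 0.6 ng/mL for 1 h, bound antibody detected by anti-rat HRP with TMB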
beta-synuclein protein = target: T1, beta-synuclein protein (human, UniProt Q16143 1-134); experiment: ELISA on coated synuclein, 1 ug/mL
T1 construct: species read from 'recombinant human alpha-synuclein protein, beta-synuclein protein, and gamma-synuclein protein'

gamma-synuclein protein = target: T2, gamma-synuclein protein (human, UniProt O76070 1-127); experiment: ELISA on coated synuclein, 1 ug/mL
T2 construct: species read from 'recombinant human alpha-synuclein protein, beta-synuclein protein, and gamma-synuclein protein'

asyn_113-127 = target: T3, asyn_113-127 (human); experiment: Ala-scan peptide ELISA, row F, run 1
T3 construct: also called pep1
T3 peptide: Biotin-LEDMPVDPDNEAYEM

asyn_113-127_113A [2] = target: T4, asyn_113-127_113A (human); experiment: Ala-scan peptide ELISA, row F, run 1
T4 construct: substitution is already in the entry; also called pep2
T4 peptide: Biotin-AEDMPVDPDNEAYEM

asyn_113-127_114A [3] = target: T5, asyn_113-127_114A (human); experiment: Ala-scan peptide ELISA, row F, run 1
T5 construct: substitution is already in the entry; also called pep3
T5 peptide: Biotin-LADMPVDPDNEAYEM

asyn_113-127_115A [4] = target: T6, asyn_113-127_115A (human); experiment: Ala-scan peptide ELISA, row F, run 1
T6 construct: substitution is already in the entry; also called pep4
T6 peptide: Biotin-LEAMPVDPDNEAYEM

asyn_113-127_116A [5] = target: T7, asyn_113-127_116A (human); experiment: Ala-scan peptide ELISA, row F, run 1
T7 construct: substitution is already in the entry; also called pep5
T7 peptide: Biotin-LEDAPVDPDNEAYEM

asyn_113-127_117A = target: T8, asyn_113-127_117A (human); experiment: Ala-scan peptide ELISA, row F, run 1
T8 construct: substitution is already in the entry; also called pep6
T8 peptide: Biotin-LEDMAVDPDNEAYEM

asyn_113-127_118A [6] = target: T9, asyn_113-127_118A (human); experiment: Ala-scan peptide ELISA, row F, run 1
T9 construct: substitution is already in the entry; also called pep7
T9 peptide: Biotin-LEDMPADPDNEAYEM

asyn_113-127_119A = target: T10, asyn_113-127_119A (human); experiment: Ala-scan peptide ELISA, row F, run 1
T10 construct: substitution is already in the entry; also called pep8
T10 peptide: Biotin-LEDMPVAPDNEAYEM

asyn_113-127_120A [7] = target: T11, asyn_113-127_120A (human); experiment: Ala-scan peptide ELISA, row F, run 1
T11 construct: substitution is already in the entry; also called pep9
T11 peptide: Biotin-LEDMPVDADNEAYEM

asyn_113-127_121A = target: T12, asyn_113-127_121A (human); experiment: Ala-scan peptide ELISA, row F, run 1
T12 construct: substitution is already in the entry; also called pep10
T12 peptide: Biotin-LEDMPVDPANEAYEM

asyn_113-127_122A [8] = target: T13, asyn_113-127_122A (human); experiment: Ala-scan peptide ELISA, row F, run 1
T13 construct: substitution is already in the entry; also called pep11
T13 peptide: Biotin-LEDMPVDPDAEAYEM

asyn_113-127_123A = target: T14, asyn_113-127_123A (human); experiment: Ala-scan peptide ELISA, row F, run 1
T14 construct: substitution is already in the entry; also called pep12
T14 peptide: Biotin-LEDMPVDPDNAAYEM

asyn_113-127_124G [9] = target: T15, asyn_113-127_124G (human); experiment: Ala-scan peptide ELISA, row F, run 1
T15 construct: substitution is already in the entry; also called pep13
T15 peptide: Biotin-LEDMPVDPDNEGYEM

asyn_113-127_124P [10] = target: T16, asyn_113-127_124P (human); experiment: Ala-scan peptide ELISA, row F, run 1
T16 construct: substitution is already in the entry; also called pep14
T16 peptide: Biotin-LEDMPVDPDNEPYEM

asyn_113-127_125A [11] = target: T17, asyn_113-127_125A (human); experiment: Ala-scan peptide ELISA, row F, run 1
T17 construct: substitution is already in the entry; also called pep15
T17 peptide: Biotin-LEDMPVDPDNEAAEM

asyn_113-127_126A [12] = target: T18, asyn_113-127_126A (human); experiment: Ala-scan peptide ELISA, row F, run 1
T18 construct: substitution is already in the entry; also called pep16
T18 peptide: Biotin-LEDMPVDPDNEAYAM

asyn_113-127_127A = target: T19, asyn_113-127_127A (human); experiment: Ala-scan peptide ELISA, row F, run 1
T19 construct: substitution is already in the entry; also called pep17
T19 peptide: Biotin-LEDMPVDPDNEAYEA

[13] = target: T20, biotinylated human alpha-synuclein (human, UniProt P37840 1-140); experiment: Ala-scan peptide ELISA, row F, run 1
asyn_113-127_116A [14] = target: T7, asyn_113-127_116A; experiment: Ala-scan peptide ELISA, row F, run 2
asyn_113-127_113A [15] = target: T4, asyn_113-127_113A; experiment: Ala-scan peptide ELISA, row H, run 2
asyn_113-127_114A [16] = target: T5, asyn_113-127_114A; experiment: Ala-scan peptide ELISA, row H, run 2
asyn_113-127_115A [17] = target: T6, asyn_113-127_115A; experiment: Ala-scan peptide ELISA, row H, run 2
asyn_113-127_118A [18] = target: T9, asyn_113-127_118A; experiment: Ala-scan peptide ELISA, row H, run 2
asyn_113-127_120A [19] = target: T11, asyn_113-127_120A; experiment: Ala-scan peptide ELISA, row H, run 2
asyn_113-127_122A [20] = target: T13, asyn_113-127_122A; experiment: Ala-scan peptide ELISA, row H, run 2
asyn_113-127_124G [21] = target: T15, asyn_113-127_124G; experiment: Ala-scan peptide ELISA, row H, run 2
asyn_113-127_124P [22] = target: T16, asyn_113-127_124P; experiment: Ala-scan peptide ELISA, row H, run 2
asyn_113-127_125A [23] = target: T17, asyn_113-127_125A; experiment: Ala-scan peptide ELISA, row H, run 2
asyn_113-127_126A [24] = target: T18, asyn_113-127_126A; experiment: Ala-scan peptide ELISA, row H, run 2
[25] = target: T20, biotinylated human alpha-synuclein; experiment: Ala-scan peptide ELISA, row H, run 2

Bmax (O.D. at 450 nm) [1]: 0.83 OD
EC50 [1]: 0.18 nM
Bmax (O.D. at 450 nm) (rat alpha-synuclein): 0.2 OD
EC50 (rat alpha-synuclein): 1.5 nM
binding result (beta-synuclein protein): no binding
binding result (gamma-synuclein protein): no binding
A450 (asyn_113-127): 0.149 OD
A450 (asyn_113-127_113A [2]): 0.151 OD
A450 (asyn_113-127_114A [3]): 0.153 OD
A450 (asyn_113-127_115A [4]): 0.089 OD
A450 (asyn_113-127_116A [5]): 0.172 OD
A450 (asyn_113-127_117A): 0.174 OD
A450 (asyn_113-127_118A [6]): 0.169 OD
A450 (asyn_113-127_119A): 0.05 OD
A450 (asyn_113-127_120A [7]): 0.132 OD
A450 (asyn_113-127_121A): 0.153 OD
A450 (asyn_113-127_122A [8]): 0.05 OD
A450 (asyn_113-127_123A): 0.171 OD
A450 (asyn_113-127_124G [9]): 0.145 OD
A450 (asyn_113-127_124P [10]): 0.044 OD
A450 (asyn_113-127_125A [11]): 0.044 OD
A450 (asyn_113-127_126A [12]): 0.149 OD
A450 (asyn_113-127_127A): 0.144 OD
A450 [13]: 0.243 OD
A450 (asyn_113-127_116A [14]): 0.165 OD
A450 (asyn_113-127_113A [15]): 0.066 OD
A450 (asyn_113-127_114A [16]): 0.066 OD
A450 (asyn_113-127_115A [17]): 0.052 OD
A450 (asyn_113-127_118A [18]): 0.071 OD
A450 (asyn_113-127_120A [19]): 0.057 OD
A450 (asyn_113-127_122A [20]): 0.051 OD
A450 (asyn_113-127_124G [21]): 0.066 OD
A450 (asyn_113-127_124P [22]): 0.046 OD
A450 (asyn_113-127_125A [23]): 0.049 OD
A450 (asyn_113-127_126A [24]): 0.073 OD
A450 [25]: 0.087 OD
B1: 20H4 (antibody, rat IgG2b, V domains shown)
VH: AVQLVESGGGLVQPKESLKISCAASGFTFSNAAMYWVRQAPGKGLELLARIRTKPNNYATYHADSVKGRFTISRDDSQSMVYLHMGNLKTEDTAMYYCTADMATGDYWGPGVMVTVSS
VL: DIQMTQSPPVLSVSVGDRVTLSCKASQNINKNLDWYQQKHGEAPKPLIYSTNNLQTGVPSRFSGSGSGTDYTLTISSLQPEDVATYYCYQYKSAWTFGGGTKLELR
notes: also called clone 20H4; rat 20H4
